Measured values taken from article PMC5409509.

Tests used:
[1] = biological target: T1, Mlh1-Mlh3 (Saccharomyces cerevisiae) (UniProt P38920+Q12083); test: filter binding; settings: 2 mM Mg2+; Filter binding: 20 mM Tris-HCl pH 7.5, 0.01 mM EDTA, 2 mM MgCl2, 40 ug/mL BSA, 0.1 mM DTT, 15 uM nucleotide DNA, 10 min at 30 C (20 or 150 mM KCl in Fig 4B …)
T1 sequence 1: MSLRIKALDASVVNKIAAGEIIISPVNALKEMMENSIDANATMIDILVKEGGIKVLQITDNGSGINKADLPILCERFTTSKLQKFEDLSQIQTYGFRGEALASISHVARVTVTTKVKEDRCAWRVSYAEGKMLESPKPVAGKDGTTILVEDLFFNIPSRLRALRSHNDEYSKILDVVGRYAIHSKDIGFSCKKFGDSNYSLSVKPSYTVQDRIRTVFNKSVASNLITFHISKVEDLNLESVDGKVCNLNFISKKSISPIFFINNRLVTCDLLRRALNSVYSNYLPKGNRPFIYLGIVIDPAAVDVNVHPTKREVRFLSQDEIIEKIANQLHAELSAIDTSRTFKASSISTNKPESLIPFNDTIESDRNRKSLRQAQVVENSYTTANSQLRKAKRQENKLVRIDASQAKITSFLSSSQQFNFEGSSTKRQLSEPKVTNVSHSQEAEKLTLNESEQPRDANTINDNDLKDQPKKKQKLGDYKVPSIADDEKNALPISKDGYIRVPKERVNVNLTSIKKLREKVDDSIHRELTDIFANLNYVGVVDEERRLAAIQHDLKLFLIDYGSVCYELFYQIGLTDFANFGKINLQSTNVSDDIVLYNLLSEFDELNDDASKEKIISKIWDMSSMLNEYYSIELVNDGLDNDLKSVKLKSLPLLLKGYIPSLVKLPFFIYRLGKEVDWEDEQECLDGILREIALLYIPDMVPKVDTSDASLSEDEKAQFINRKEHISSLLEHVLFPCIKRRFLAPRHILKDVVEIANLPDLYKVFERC
T1 sequence 2: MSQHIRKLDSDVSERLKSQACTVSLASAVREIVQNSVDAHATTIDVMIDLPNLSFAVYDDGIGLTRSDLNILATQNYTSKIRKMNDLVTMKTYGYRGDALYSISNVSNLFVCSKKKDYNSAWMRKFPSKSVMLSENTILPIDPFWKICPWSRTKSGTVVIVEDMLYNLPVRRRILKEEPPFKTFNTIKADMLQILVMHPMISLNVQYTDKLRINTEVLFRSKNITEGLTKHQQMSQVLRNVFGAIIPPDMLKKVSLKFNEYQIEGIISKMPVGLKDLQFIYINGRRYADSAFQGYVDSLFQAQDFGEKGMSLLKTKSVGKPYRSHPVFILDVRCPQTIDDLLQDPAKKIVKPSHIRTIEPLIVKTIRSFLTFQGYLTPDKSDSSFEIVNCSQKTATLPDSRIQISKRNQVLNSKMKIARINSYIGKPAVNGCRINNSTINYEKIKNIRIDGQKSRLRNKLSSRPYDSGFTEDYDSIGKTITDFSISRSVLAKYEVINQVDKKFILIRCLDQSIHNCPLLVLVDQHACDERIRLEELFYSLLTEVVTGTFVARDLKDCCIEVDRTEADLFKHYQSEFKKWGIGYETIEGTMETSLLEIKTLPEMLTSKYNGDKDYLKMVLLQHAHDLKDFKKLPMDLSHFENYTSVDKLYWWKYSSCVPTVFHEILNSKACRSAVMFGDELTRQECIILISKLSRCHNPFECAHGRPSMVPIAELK

[2] = biological target: Yeast wild-type Mlh1-Mlh3 (yeast (S. cerevisiae)) (UniProt P38920)

Row | Substance | Kd [1] [nM] | amount of nicked product made by Mlh1-Mlh3 on the 7.2 kb +8 loop circular substrate, without and with Msh2-Msh3 (10% without) [2] [%] | amount of nicked product made by Mlh1-Mlh3 on the 7.2 kb homoduplex circular substrate, without and with Msh2-Msh3 (15% without) [2] [%]
1 | 7 kb linear pEAE399 (HindIII) | 65 | – | –
2 | Yeast Msh2-Msh3 (from UniProt P25847 1-964; P25336 1-1018) (complex) | – | 21 | 36
3 | 2.7 kb linear pUC18 (HindIII) | 100 | – | –
4 | 12 kb linear pEAE99 (HindIII) | 40 | – | –
